According to publication doi:10.1101/2022.10.05.510992:

Biological target: Sodium-bicarbonate co-transporter NBCn1 (SLC4A7), native in human cells (human (endogenous in MCF-7 and HEK293T)) (UniProt Q9Y6M7)
Test: proximity ligation

UniProt Q9Y6M7, sequence (Q9Y6M7 whole entry): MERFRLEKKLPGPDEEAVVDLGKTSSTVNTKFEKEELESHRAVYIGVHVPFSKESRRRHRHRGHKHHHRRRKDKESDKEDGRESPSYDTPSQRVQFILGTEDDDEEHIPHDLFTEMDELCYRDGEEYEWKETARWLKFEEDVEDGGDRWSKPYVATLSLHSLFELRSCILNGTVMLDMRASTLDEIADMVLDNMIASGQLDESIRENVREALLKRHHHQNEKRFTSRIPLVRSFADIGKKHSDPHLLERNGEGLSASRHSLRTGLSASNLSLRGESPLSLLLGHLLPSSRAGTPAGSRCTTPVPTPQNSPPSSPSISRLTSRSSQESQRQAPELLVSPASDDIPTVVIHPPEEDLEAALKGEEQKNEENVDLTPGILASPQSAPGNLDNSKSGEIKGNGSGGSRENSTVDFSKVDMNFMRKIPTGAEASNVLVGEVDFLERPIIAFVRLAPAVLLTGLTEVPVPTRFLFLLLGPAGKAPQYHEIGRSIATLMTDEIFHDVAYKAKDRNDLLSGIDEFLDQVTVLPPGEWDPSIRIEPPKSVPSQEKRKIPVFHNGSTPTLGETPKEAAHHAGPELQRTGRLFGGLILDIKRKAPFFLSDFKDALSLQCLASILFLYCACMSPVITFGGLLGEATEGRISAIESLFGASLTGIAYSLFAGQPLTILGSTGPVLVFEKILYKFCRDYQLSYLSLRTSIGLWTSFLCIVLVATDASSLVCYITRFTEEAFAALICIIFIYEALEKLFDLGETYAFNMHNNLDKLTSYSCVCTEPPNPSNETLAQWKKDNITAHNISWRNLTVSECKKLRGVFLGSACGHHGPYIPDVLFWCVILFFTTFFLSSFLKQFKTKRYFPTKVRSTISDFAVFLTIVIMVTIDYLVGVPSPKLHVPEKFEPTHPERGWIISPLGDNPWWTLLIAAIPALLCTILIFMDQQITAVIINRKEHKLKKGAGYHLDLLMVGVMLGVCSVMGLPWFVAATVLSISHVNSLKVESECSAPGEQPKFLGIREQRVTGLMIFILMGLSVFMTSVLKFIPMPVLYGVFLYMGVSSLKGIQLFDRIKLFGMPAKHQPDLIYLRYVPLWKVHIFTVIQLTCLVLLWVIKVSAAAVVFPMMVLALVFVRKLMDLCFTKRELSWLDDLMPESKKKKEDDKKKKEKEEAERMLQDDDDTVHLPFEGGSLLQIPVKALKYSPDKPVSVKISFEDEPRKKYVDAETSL

Question: How did the PLA signal, fold over the NBCn1-NHE1 control turn out when “E-cadherin, native in MCF-7 cells (natural protein)” was run?
Answer: 4 fold

Question: And the PLA signal, fold over the negative control (only NBCn1 antibody)?
Answer: 11 fold
